{"source": "patent US20190062438A1", "about": "(CSL, published 2019)", "binders": {"B1": {"name": "9A2 Fab (Fab, V domains shown)", "VH": "EVQLLESGGGLVQPGGSLRLSCAASGFTFSHYHMLWVRQAPGKGLEWVSSIRSSGGFTYYADSVKGRFTISRDNSKNTLYLQMNSLRAEDTAVYYCARFYDSFFDIWGQGTMVTVSS", "VL": "DIQMTQSPSSVSASVGDRVTITCRASQGISSWLAWYQQKPGKAPKLLIYAASSLQSGVPSRFSGSGSGTDFTLTISSLQPEDFATYYCQQANSFPITFGQGTRLEIKR", "notes": "also called recombinant Fab of 9A2"}}, "test_in_all_cases": "SPR, steady state, Fab over captured mutant", "key": {"shCD131 S102A": {"molecular_target": "T1, shCD131 S102A (human, UniProt P32927 17-438)", "T1 construct": "C-terminal 6xHis", "T1 sequence": "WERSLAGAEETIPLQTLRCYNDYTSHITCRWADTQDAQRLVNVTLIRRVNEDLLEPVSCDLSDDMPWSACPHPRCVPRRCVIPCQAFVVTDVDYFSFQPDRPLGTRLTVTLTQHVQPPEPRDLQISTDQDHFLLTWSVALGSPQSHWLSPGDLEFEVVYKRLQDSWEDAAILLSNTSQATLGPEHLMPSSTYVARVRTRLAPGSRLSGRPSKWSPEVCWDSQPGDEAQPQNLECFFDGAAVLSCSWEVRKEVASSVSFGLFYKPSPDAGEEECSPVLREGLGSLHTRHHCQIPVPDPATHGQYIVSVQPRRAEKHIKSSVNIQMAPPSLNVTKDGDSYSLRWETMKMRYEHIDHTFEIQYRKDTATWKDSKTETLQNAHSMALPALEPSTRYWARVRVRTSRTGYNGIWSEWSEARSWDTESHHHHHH", "procedure": "(§1) For some analysis purified Fab was injected over each flow cell for 3 minutes and dissociation was monitored for a further 10 minutes. Regeneration of the surface was performed after each cycle with a 40 second injection of 25 mM glycine, pH 2.0. The analysis was performed with Fabs at several concentrations between 100 and 0.31 nM, with each concentration analyzed twice and in random order. The analysis was performed at a flow rate of 30 μl/min in HBS-EP buffer (10 mM Hepes, 150 mM NaCl, 3 mM EDTA, 0.005% Tween 20, pH 7.4) at 37° C. Responses from spots 2 and 4 of each flow cell, (in which shβc was not captured, but otherwise treated identically), were subtracted from those of spots 1 and 5 respectively to produce reference subtracted data. Reference subtracted responses from a blank injection comprising buffer alone were subtracted from the resultant sensorgrams to produce double referenced data suitable for kinetic analysis. Double-referenced sensorgrams were fitted using non-linear regression to a model describing 1:1 kinetics, including a term for mass transport limitation. The Rₘₐₓ value was fitted locally to account for slight deviations in the level of sCD131 captured, with association rate (kₐ), dissociation rate (kd) and equilibrium dissociation constant (KD) fitted globally.\n(§2) Mapping of the shCD131 epitope was performed by measurement of the affinity of Fabs for various alanine point mutants of shCD131 essentially as described above, with the following exceptions. Each shCD131 mutant was captured for 120 seconds at concentrations between 1 and 5 μg/ml. For kinetic analysis, purified recombinant Fabs were injected for 2 minutes, and dissociation was monitored for a further 2 minutes. […] Fab concentrations ranged from 16 μM to 3.9 nM in two-fold dilutions. The assays were conducted at 25° C. All sensorgrams were reference subtracted as described above. For determination of steady-state affinity (KD only), the response at the end of the binding phase was used to fit the data to a single-site binding model. Kinetic parameters were determined as described above."}, "shCD131 G423A": {"molecular_target": "T2, shCD131 G423A (human, UniProt P32927 17-438)", "T2 construct": "C-terminal 6xHis", "T2 sequence": "T1 sequence with A86S, G407A", "procedure": "as §1, §2"}, "shCD131 T40A": {"molecular_target": "T3, shCD131 T40A (human, UniProt P32927 17-438)", "T3 construct": "C-terminal 6xHis", "T3 sequence": "T1 sequence with T24A, A86S", "procedure": "as §1, §2"}}, "note": "Substitutions are numbered along the chain they refer to.", "data": [{"binder": "B1", "values": [{"measurement": "Kd", "setting": "shCD131 S102A", "value": 324, "unit": "nM"}, {"measurement": "Kd", "setting": "shCD131 G423A", "value": 197, "unit": "nM"}, {"measurement": "Kd", "setting": "shCD131 T40A", "value": 236, "unit": "nM"}]}]}
